From paper PMC4357533 (Journal of molecular biology, 2015)
Changes are numbered by the printed parent chain. In names and notes the source's numbering stands.

B1: Sis1 single alteration variant K199N (natural protein, S. cerevisiae, UniProt P25294 1-352, looked up)
chain: MVKETKLYDLLGVSPSANEQELKKGYRKAALKYHPDKPTGDTEKFKEISEAFEILNDPQKREIYDQYGLEAARSGGPSFGPGGPGGAGGAGGFPGGAGGFSGGHAFSNEDAFNIFSQFFGGSSPFGGADDSGFSFSSYPSGGGAGMGGMPGGMGGMHGGMGGMPGGFRSASSSPTYPEEETVQVNLPVSLEDLFVGKKNSFKIGRKGPHGASEKTQIDIQLKPGWKAGTKITYKNQGDYNPQTGRRKTLQFVIQEKSHPNFKRDGDDLIYTLPLSFKESLLGFSKTIQTIDGRTLPLSRVQPVQPSQTSTYPGQGMPTPKNPSQRGNLIVKYKVDYPISLNDAQKRAIDENF
B2: Sis1 single alteration variant K214N (natural protein, S. cerevisiae, UniProt P25294 1-352, looked up)
chain: B1 chain with N199K, K214N
B3: Sis1 single alteration variant K202N (natural protein, S. cerevisiae, UniProt P25294 1-352, looked up)
chain: B1 chain with N199K, K202N

Target: Ssa1 Hsp70 (S. cerevisiae, UniProt P10591 1-642)
Sequence (P10591 whole entry): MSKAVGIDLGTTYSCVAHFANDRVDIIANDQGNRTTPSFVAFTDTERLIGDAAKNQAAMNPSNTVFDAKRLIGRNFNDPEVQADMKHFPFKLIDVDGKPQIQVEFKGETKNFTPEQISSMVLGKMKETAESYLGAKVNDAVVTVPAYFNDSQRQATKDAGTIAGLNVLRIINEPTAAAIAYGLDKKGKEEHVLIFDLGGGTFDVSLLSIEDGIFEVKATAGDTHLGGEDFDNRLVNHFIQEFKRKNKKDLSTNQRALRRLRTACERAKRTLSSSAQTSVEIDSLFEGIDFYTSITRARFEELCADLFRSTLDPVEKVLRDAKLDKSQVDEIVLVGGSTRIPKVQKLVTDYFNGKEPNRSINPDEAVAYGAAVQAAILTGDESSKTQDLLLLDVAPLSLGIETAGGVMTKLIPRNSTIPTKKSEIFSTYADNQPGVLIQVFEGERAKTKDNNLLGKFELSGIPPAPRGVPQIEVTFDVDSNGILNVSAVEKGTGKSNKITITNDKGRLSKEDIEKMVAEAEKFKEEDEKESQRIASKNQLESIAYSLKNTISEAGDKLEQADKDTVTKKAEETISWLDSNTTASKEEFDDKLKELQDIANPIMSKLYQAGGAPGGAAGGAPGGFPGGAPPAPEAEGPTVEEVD
Assay: ELISA

| Binder | binding result |
| --- | --- |
| B1 | binds |
| B2 | binds |
| B3 | binds |
